Data on two proteins can be found in paper PMC4528935, “Structures of Pseudomonas aeruginosa β-ketoacyl-(acyl-carrier-protein) synthase II (FabF) and a C164Q mutant provide templates for antibacterial drug discovery and identify a buried potassium ion and a ligand-binding site that is an artefact of the crystal form” (Acta Crystallographica. Section F, Structural Biology …, 2015).

Series [1] deals with the molecule itself. In words: crystal structure; apo PaFabF, space group P2_(1), two molecules in the asymmetric unit; 0.2 M MgCl2, 0.1 M Tris-HCl pH 7.0, 10% PEG 8000, 293 K.
Series [2] deals with the molecule itself. The experiment in a line: crystal structure; PaFabF-C164Q, space group C222_(1), a dimer in the asymmetric unit; 0.2 M NH4HCO2, 25% PEG 3350, 293 K.

Substitutions are numbered along the chain they refer to. Numbers in names are those of the source.

B1: Pseudomonas aeruginosa β-ketoacyl-(acyl-carrier-protein) synthase II (FabF) (enzyme)
chain: MSRRRVVITGMGMLSPLGLDVPSSWEGILAGRSGIAPIEHMDLSAYSTRFGGSVKGFNVEEYLSAKEARKLDLFIQYGLAASFQAVRDSGLEVTDANRERIGVSMGSGIGGLTNIENNCRSLFEQGPRRISPFFVPGSIINMVSGFLSIHLGLQGPNYALTTACTTGTHSIGMAARNIAYGEADVMVAGGSEMAACGLGLGGFGAARALSTRNDEPTRASRPWDRDRDGFVLSDGSGALVLEELEHARARGARIYAELVGFGMSGDAFHMTAPPEDGAGAARCMKNALRDAGLDPRQVDYINAHGTSTPAGDIAEIAAVKSVFGEHAHALSMSSTKSMTGHLLGAAGAVEAIFSVLALRDQVAPPTINLDNPDEGCDLDLVAHEAKPRKIDVALSNSFGFGGTNGTLVFRRFAD
notes: β-ketoacyl-(acyl-carrier-protein) synthase II (FabF) of Pseudomonas aeruginosa, UniProt G3XDA2; the gene was cloned into pNIC28-Bsa4; theoretical mass of a monomer 43 kDa; The models hold 822 residues for two chains (4b7v) and 408 for one chain (4jpf); also called PaFabF; apo PaFabF; source: E. coli BL21(DE3)pLysS, purified (Ni2+ HisTrap, TEV cleavage, second HisTrap, Superdex 200 SEC); not …
B1: in series [1], the binding result is “binds”.

B2: PaFabF C164Q mutant (enzyme)
chain: B1 chain with C164Q
notes: β-ketoacyl-(acyl-carrier-protein) synthase II (FabF) of Pseudomonas aeruginosa, UniProt G3XDA2, with Cys164 changed to Gln; same construct in pNIC28-Bsa4 as the wild type; The model holds 824 residues for two chains (4jb6); source: E. coli BL21(DE3)pLysS, purified as the wild type but in phosphate buffer; not shown: His6, N-terminal, cleaved
As to B2, the binding result in series [2] is recorded as “binds”.
